Data published in patent US20140303084.
Where a chain is given by its changes, count along the chain named.

How the values were obtained:
[1] = system: T1, TGLLQGRRDE RARPP KLTCLASYCWLFWTGIA
T1 sequence: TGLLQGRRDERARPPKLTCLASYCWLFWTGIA

[2] = system: T2, RRAPGKLT-Asp-LASY-Dab-WLFWTGIA-CONH2
T2 sequence: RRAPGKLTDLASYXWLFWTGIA

[3] = system: T3, SKQGRPISPDrRAAGKLTCLASYCWLFW
T3 sequence: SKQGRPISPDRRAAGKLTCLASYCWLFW

[4] = system: T4, PRIRTVSPGSRSASGKSTCLASYCWLFWTGIA
T4 sequence: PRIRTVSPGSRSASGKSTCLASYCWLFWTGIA

[5] = system: T5, PRIRTVGPGSRSASGKLTCLASYCWLFATGIA
T5 sequence: T4 sequence with S7G, S17L, W28A

KLTCLASYCW-Nle-F = system: T6, KLTCLASYCW-Nle-F
T6 sequence: KLTCLASYCWXF

DAKVAKLRCLGSQCWLLQYAPG = system: T7, DAKVAKLRCLGSQCWLLQYAPG
T7 sequence: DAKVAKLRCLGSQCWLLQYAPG

[6] = system: T8, RRAPGKLTCLAS-MeTyr-CWLFWTGIA
T8 sequence: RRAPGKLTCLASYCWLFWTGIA

rRAPGKSTCLASYCWLFWTGIA = system: T9, rRAPGKSTCLASYCWLFWTGIA
T9 sequence: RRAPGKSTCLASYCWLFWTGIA

[7] = system: T10, SKQGRPIAPDrRAAGKLTCLASYCWLFWTGIA
T10 sequence: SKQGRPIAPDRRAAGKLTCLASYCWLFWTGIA

ERYRLDMTCMASQCWQFPPAAG = system: T11, ERYRLDMTCMASQCWQFPPAAG
T11 sequence: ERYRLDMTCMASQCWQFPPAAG

KLTCL-Abu-SYCWLF = system: T12, KLTCL-Abu-SYCWLF
T12 sequence: KLTCLXSYCWLF

[8] = system: T13, SKQGRPISPArRAAGKLTCLASYCWLFWTGIA
T13 sequence: T10 sequence with A8S, D10A

[9] = system: T14, SKQGRPISPDRRAAGKLT-Asp-LASY-Orn-WLFWTGIA
T14 sequence: T10 sequence with A8S, C19D, C24X

KLTCLASY-HCy-WLF = system: T15, KLTCLASY-HCy-WLF
T15 sequence: KLTCLASYXWLF

KLTCLASYC-Nal-LF = system: T16, KLTCLASYC-Nal-LF
T16 sequence: KLTCLASYCXLF

[10] = system: T17, RRAPGKLTCLASYCWLF WTGLA PGRGQGGVAG
T17 sequence: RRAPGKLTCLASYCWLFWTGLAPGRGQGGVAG

[11] = system: T18, Glu(Biotinyl-PEG)-RAPGKLTCLASYCWLFWTGIA
T18 sequence: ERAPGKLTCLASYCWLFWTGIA

[12] = system: T19, SKQGRPISPDrRAAGKLTCLASYCWLFWT
T19 sequence: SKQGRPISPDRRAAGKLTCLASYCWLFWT

[13] = system: T20, RRAPGKLTCLASYCWK(PEG2-Biotin)FWTGIA
T20 sequence: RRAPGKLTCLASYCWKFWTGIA

[14] = system: T21, RRAK(PEG2-Biotin)GKLTCLASYCWLFWTGIA
T21 sequence: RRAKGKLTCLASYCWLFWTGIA

RGRSAKLRCLASYCWLFFGVIL = system: T22, RGRSAKLRCLASYCWLFFGVIL
T22 sequence: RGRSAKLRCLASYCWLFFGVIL

KLTCLASYCLLF = system: T23, KLTCLASYCLLF
T23 sequence: KLTCLASYCLLF

[15] = system: T24, RRAPGKLTCLASYCWLF WAVIA PPKVKGTRQS
T24 sequence: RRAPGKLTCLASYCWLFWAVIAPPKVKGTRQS

RCAQSRLPWLVSYCWLFSPYGM = system: T25, RCAQSRLPWLVSYCWLFSPYGM
T25 sequence: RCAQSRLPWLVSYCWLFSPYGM

[16] = system: T26, aigtwflwcysalctlkgparr (retro-inverso)
T26 sequence: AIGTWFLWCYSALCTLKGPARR

[17] = system: T27, RRAPGKLTCLASYACLFWTGIA-CONH2
T27 sequence: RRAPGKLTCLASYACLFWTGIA

[18] = system: T28, RRAPGKLTCLASYCWLF ATGVT FPQIWAIPSP
T28 sequence: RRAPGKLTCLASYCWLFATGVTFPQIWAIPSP

[19] = system: T29, RRFVGGSLSQ RRAPG KLTCLASYCWLFWTGIA
T29 sequence: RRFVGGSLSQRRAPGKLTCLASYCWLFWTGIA

RKAPGKLQCLASYCWLFWTGIA = system: T30, RKAPGKLQCLASYCWLFWTGIA
T30 sequence: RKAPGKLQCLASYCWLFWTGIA

[20] = system: T31, RRAPGKLTCLASYCWLF WTGWC RDTASHACDS
T31 sequence: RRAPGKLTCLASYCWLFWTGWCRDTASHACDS

[21] = system: T32, RRAPGKLTCLASYCWLF YTGIA HGHPMEHRKS
T32 sequence: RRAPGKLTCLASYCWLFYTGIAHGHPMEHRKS

[22] = system: T33, RRAPGCLTALASYCWLFWTGIA-COOH
T33 sequence: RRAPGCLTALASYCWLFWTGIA

Lys(Me)-LTCLASYCWLF = system: T34, Lys(Me)-LTCLASYCWLF
T34 sequence: KLTCLASYCWLF

[23] = system: T35, RR-MeAla-PGKLTCLASYCWLFWTGIA
T35 sequence: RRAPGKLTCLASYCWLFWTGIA

[24] = system: T36, PRIRTVGPGSRSASGKLTCLASACWLFWTGIA
T36 sequence: T4 sequence with S7G, S17L, Y23A

VSGTGRLTCVASYCWMFQLGIF = system: T37, VSGTGRLTCVASYCWMFQLGIF
T37 sequence: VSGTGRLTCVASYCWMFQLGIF

KLTCLSSYCWLF = system: T38, KLTCLSSYCWLF
T38 sequence: KLTCLSSYCWLF

KLT-Glu-LASY-Dab-WLF = system: T39, KLT-Glu-LASY-Dab-WLF
T39 sequence: KLTELASYXWLF

KLTCLASYCW-MeLeu-F = system: T40, KLTCLASYCW-MeLeu-F
T40 sequence: KLTCLASYCWLF

KLTCLASYCWL = system: T41, KLTCLASYCWL
T41 sequence: KLTCLASYCWL

[25] = system: T42, RRAPGK(PEG2-Biotin)LTCLASYCWLFWTGIA
T42 sequence: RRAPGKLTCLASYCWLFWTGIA

MeLys-LTCLASYCWLF = system: T43, MeLys-LTCLASYCWLF
T43 sequence: KLTCLASYCWLF

RRAPGKLTClASYCWLFWTGIA = system: T44, RRAPGKLTClASYCWLFWTGIA
T44 sequence: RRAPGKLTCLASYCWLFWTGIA

[26] = system: T45, RRAPGKLT-Asp-LASY-Dap-WLFWTGIA-COOH
T45 sequence: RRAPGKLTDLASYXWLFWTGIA

k-MeLeu-TCLASYCQLF = system: T46, k-MeLeu-TCLASYCQLF
T46 sequence: KLTCLASYCQLF

FGQPSRLTCLASYCWLFGNLVT = system: T47, FGQPSRLTCLASYCWLFGNLVT
T47 sequence: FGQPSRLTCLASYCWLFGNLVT

VSGTGKLTCLASYCWLFQLGSF = system: T48, VSGTGKLTCLASYCWLFQLGSF
T48 sequence: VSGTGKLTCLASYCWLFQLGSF

[27] = system: T49, RRAPGKLTCLASYCWLF WAGIA PHRPLKERVR
T49 sequence: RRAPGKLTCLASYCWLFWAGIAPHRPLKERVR

human Factor IXa
Vmax, FXa generation assay [1]: > 3 | Vmax, FXa generation assay; (++) means 1-2 [2]: (++) | Vmax, FXa generation assay [3]: > 3 | Vmax, FXa generation assay [4]: > 3 | Vmax, FXa generation assay [5]: > 3 | Vmax, FXa generation assay (KLTCLASYCW-Nle-F): > 2 | Vmax, FXa generation assay; (++) means 1-2 (DAKVAKLRCLGSQCWLLQYAPG): (++) | Vmax, FXa generation assay; (++) means 1-2 [6]: (++) | Vmax, FXa generation assay; (++) means 1-2 (rRAPGKSTCLASYCWLFWTGIA): (++) | Vmax, FXa generation assay [7]: > 3 | Vmax, FXa generation assay; (++) means 1-2 (ERYRLDMTCMASQCWQFPPAAG): (++) | Vmax, FXa generation assay (KLTCL-Abu-SYCWLF): > 2 | Vmax, FXa generation assay [8]: > 3 | Vmax, FXa generation assay [9]: > 3 | Vmax, FXa generation assay (KLTCLASY-HCy-WLF): > 3 | Vmax, FXa generation assay (KLTCLASYC-Nal-LF): > 3 | Vmax, FXa generation assay [10]: > 3 | Vmax, FXa generation assay [11]: > 0.8 | Vmax, FXa generation assay [12]: > 2 | Vmax, FXa generation assay [13]: > 3 | Vmax, FXa generation assay; (++) means 1-2 [14]: (++) | Vmax, FXa generation assay (RGRSAKLRCLASYCWLFFGVIL): > 2 | Vmax, FXa generation assay (KLTCLASYCLLF): > 2 | Vmax, FXa generation assay [15]: > 2 | Vmax, FXa generation assay (RCAQSRLPWLVSYCWLFSPYGM): > 1.5 | Vmax, FXa generation assay [16]: > 2 | Vmax, FXa generation assay [17]: > 3 | Vmax, FXa generation assay [18]: > 3 | Vmax, FXa generation assay [19]: > 3 | Vmax, FXa generation assay (RKAPGKLQCLASYCWLFWTGIA): > 2 | Vmax, FXa generation assay; (++) means 1-2 [20]: (++) | Vmax, FXa generation assay [21]: > 3 | Vmax, FXa generation assay [22]: > 2 | Vmax, FXa generation assay; (++) means 1-2 (Lys(Me)-LTCLASYCWLF): (++) | Vmax, FXa generation assay [23]: > 3 | Vmax, FXa generation assay; (++) means 1-2 [24]: (++) | Vmax, FXa generation assay; (++) means 1-2 (VSGTGRLTCVASYCWMFQLGIF): (++) | Vmax, FXa generation assay (KLTCLSSYCWLF): > 2 | Vmax, FXa generation assay; (++) means 1-2 (KLT-Glu-LASY-Dab-WLF): (++) | Vmax, FXa generation assay (KLTCLASYCW-MeLeu-F): > 2 | Vmax, FXa generation assay (KLTCLASYCWL): > 3 | Vmax, FXa generation assay; (++) means 1-2 [25]: (++) | Vmax, FXa generation assay; (++) means 1-2 (MeLys-LTCLASYCWLF): (++) | Vmax, FXa generation assay; (++) means 1-2 (RRAPGKLTClASYCWLFWTGIA): (++) | Vmax, FXa generation assay; (++) means 1-2 [26]: (++) | Vmax, FXa generation assay (k-MeLeu-TCLASYCQLF): > 3 | Vmax, FXa generation assay; (++) means 1-2 (FGQPSRLTCLASYCWLFGNLVT): (++) | Vmax, FXa generation assay; (++) means 1-2 (VSGTGKLTCLASYCWLFQLGSF): (++) | Vmax, FXa generation assay [27]: > 2
